The source of these data is patent US20240376151A1, “STAPLED PEPTIDES AND METHODS THEREOF” (FOG PHARMACEUTICALS, INC., priority 2022, published 2024).

Ends that are not written are not given here.

One assay deals with T1, beta-catenin (Homo sapiens, UniProt P35222).
T1 construct: made in house; host or cells: E. coli BL21 (DE3) pLysS
T1 sequence (P35222 134-665): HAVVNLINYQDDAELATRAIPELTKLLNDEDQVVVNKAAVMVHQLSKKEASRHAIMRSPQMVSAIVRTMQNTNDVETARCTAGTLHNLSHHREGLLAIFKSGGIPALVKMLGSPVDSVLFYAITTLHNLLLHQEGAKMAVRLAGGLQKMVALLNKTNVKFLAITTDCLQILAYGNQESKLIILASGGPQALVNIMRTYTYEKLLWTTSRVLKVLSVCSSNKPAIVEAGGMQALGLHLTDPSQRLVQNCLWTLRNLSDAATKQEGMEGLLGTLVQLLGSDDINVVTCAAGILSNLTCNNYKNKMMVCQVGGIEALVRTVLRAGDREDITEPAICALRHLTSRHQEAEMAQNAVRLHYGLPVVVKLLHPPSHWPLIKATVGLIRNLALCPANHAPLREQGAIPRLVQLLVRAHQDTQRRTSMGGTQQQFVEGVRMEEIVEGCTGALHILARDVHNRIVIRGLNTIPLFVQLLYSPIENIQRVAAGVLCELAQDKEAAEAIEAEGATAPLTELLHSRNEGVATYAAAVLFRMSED
Nature of the assay: Phage Library Screening with NGS, beta-catenin. It counts as binding. As to conditions: for Target Concentration 10 (phage screen NGS readout): beta-catenin target concentration 10; for Target Concentration 10 (phage screen NGS readout) / Target Concentration 30 (phage screen NGS readout) / Target Concentration 100 (phage screen NGS readout) / Target Concentration 300 (phage screen NGS readout): no competitor; for Target Concentration 30 (phage screen NGS readout): beta-catenin target concentration 30; for Target Concentration 100 (phage screen NGS readout): beta-catenin target concentration 100; for Target Concentration 300 (phage screen NGS readout): beta-catenin target concentration 300; for Target Concentration 1000 (phage screen NGS readout): beta-catenin target concentration 1000.

The target in another assay is T2, RNF31 PUB domain (Homo sapiens, UniProt Q96EP0).
T2 construct: MBP-TEV (N, cleaved yes); made in house; host or cells: E. coli BL21 (DE3) pLysS
T2 sequence (Q96EP0 1-179): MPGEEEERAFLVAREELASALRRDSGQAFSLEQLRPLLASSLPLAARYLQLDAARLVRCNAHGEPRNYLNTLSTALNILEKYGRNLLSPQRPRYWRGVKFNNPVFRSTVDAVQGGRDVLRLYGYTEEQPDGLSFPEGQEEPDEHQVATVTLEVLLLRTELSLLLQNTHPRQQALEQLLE
Nature of the assay: Phage Library Screening with NGS, RNF31 PUB domain. It counts as binding. As to conditions: for Phage library screen NGS readout, Target Concentration 10 / Phage library screen NGS readout, Target Concentration 30 / Phage library screen NGS readout, Target Concentration 100 / Phage library screen NGS readout, Target Concentration 300 / Phage library screen NGS readout, Target Concentration 1000: RNF31 PUB domain clusters C41-C45; for Phage library screen NGS readout, BLANK: clusters C41-C45.

Setting [1] is: target concentration 1000, first column.
The mark [2] stands for this setting: target concentration 1000, second column.

DPATWHCDWAAEHCELL: the “Target Concentration BLANK (phage screen NGS readout)” value (from here on “Target Concentration BLANK”) with beta-catenin (first column), with beta-catenin (fourth column), with beta-catenin (second column) and with beta-catenin (third column) was 0 each time. Besides, the “Target Concentration 10 (phage screen NGS readout)” value in the assay with beta-catenin turned out to be 2. For the same sequence, in the assay with beta-catenin, the “Target Concentration 30 (phage screen NGS readout)” value was 10. The “Target Concentration 100 (phage screen NGS readout)” value with beta-catenin amounted to 81. Moreover, in the assay with beta-catenin, the “Target Concentration 300 (phage screen NGS readout)” value is recorded as 147. The “Target Concentration 1000 (phage screen NGS readout)” value in the assay with beta-catenin (first 1000 column) is 203; with beta-catenin (second 1000 column), 280.

With DPAILECHVAALDCQMW, the “Target Concentration BLANK” value with beta-catenin (first column) is 0; in the assay with beta-catenin (fourth column), 0; in the assay with beta-catenin (second column) it was 2; in the assay with beta-catenin (third column) it was 0. For the same sequence, the “Target Concentration 10 (phage screen NGS readout)” value in the assay with beta-catenin was found to be 0. In the assay with beta-catenin, the “Target Concentration 30 (phage screen NGS readout)” value was 2. Besides, the “Target Concentration 100 (phage screen NGS readout)” value in the assay with beta-catenin turned out to be 40. Besides, the “Target Concentration 300 (phage screen NGS readout)” value with beta-catenin is reported as 55. Moreover, the results for the “Target Concentration 1000 (phage screen NGS readout)” value with beta-catenin (first 1000 column) and in the assay with beta-catenin (second 1000 column) were 98 and 81, respectively.

For the sequence DPAVLQCYEAAFICEYM, the “Target Concentration BLANK” value with beta-catenin (first column), in the assay with beta-catenin (fourth column), with beta-catenin (second column) and in the assay with beta-catenin (third column) was 0 throughout. Moreover, the “Target Concentration 10 (phage screen NGS readout)” value with beta-catenin stood at 0. In the assay with beta-catenin, the “Target Concentration 30 (phage screen NGS readout)” value turned out to be 0. The “Target Concentration 100 (phage screen NGS readout)” value in the assay with beta-catenin is 1. The “Target Concentration 300 (phage screen NGS readout)” value in the assay with beta-catenin stood at 6. The “Target Concentration 1000 (phage screen NGS readout)” value in the assay with beta-catenin (first 1000 column) turned out to be 4; with beta-catenin (second 1000 column), 5.

With DPAILECHMAAFECYIE, the “Target Concentration BLANK” value with beta-catenin (first column), with beta-catenin (fourth column), with beta-catenin (second column) and with beta-catenin (third column) was 0 each time. Moreover, the “Target Concentration 10 (phage screen NGS readout)” value in the assay with beta-catenin was 8. Also, the “Target Concentration 30 (phage screen NGS readout)” value in the assay with beta-catenin was determined as 2. The “Target Concentration 100 (phage screen NGS readout)” value in the assay with beta-catenin was found to be 20. The “Target Concentration 300 (phage screen NGS readout)” value with beta-catenin was 59. Moreover, the “Target Concentration 1000 (phage screen NGS readout)” value in the assay with beta-catenin (first 1000 column) was determined as 86; with beta-catenin (second 1000 column), 41.

Regarding DPAEWICEHAALLCSVL, the “Target Concentration BLANK” value in the assay with beta-catenin (first column), with beta-catenin (fourth column), with beta-catenin (second column) and with beta-catenin (third column) was 0 each time. Moreover, the “Target Concentration 10 (phage screen NGS readout)” value with beta-catenin amounted to 0. Besides, the “Target Concentration 30 (phage screen NGS readout)” value with beta-catenin is reported as 0. The “Target Concentration 100 (phage screen NGS readout)” value with beta-catenin was 11. Further, the “Target Concentration 300 (phage screen NGS readout)” value in the assay with beta-catenin is given as 33. Further, the figures for the “Target Concentration 1000 (phage screen NGS readout)” value with beta-catenin (first 1000 column) and with beta-catenin (second 1000 column) were 33 and 27, respectively.

With DPALWNCDHAALLCDHQ, the “Target Concentration BLANK” value with beta-catenin (first column), with beta-catenin (fourth column), with beta-catenin (second column) and with beta-catenin (third column) was 0 each time. For the same sequence, the “Target Concentration 10 (phage screen NGS readout)” value with beta-catenin is recorded as 0. Moreover, in the assay with beta-catenin, the “Target Concentration 30 (phage screen NGS readout)” value worked out at 0. Moreover, in the assay with beta-catenin, the “Target Concentration 100 (phage screen NGS readout)” value is reported as 10. Besides, the “Target Concentration 300 (phage screen NGS readout)” value with beta-catenin is given as 8. Besides, the results for the “Target Concentration 1000 (phage screen NGS readout)” value in the assay with beta-catenin (first 1000 column) and with beta-catenin (second 1000 column) were 13 and 10, respectively.

In the case of DPAWNDCLYAAETCISW, the “Phage library screen NGS readout, Target Concentration 10” value with RNF31 PUB domain is listed as 1. In addition, the “Phage library screen NGS readout, Target Concentration 30” value with RNF31 PUB domain is recorded as 1. Besides, the “Phage library screen NGS readout, Target Concentration 100” value in the assay with RNF31 PUB domain is 1. In addition, in the assay with RNF31 PUB domain, the “Phage library screen NGS readout, Target Concentration 300” value is reported as 3. The entries for the “Phage library screen NGS readout, Target Concentration 1000” value with RNF31 PUB domain (setting [1]) and with RNF31 PUB domain (setting [2]) were 11 and 1, respectively. Moreover, the “Phage library screen NGS readout, BLANK” value with RNF31 PUB domain (column 1 of 5) was found to be 2; with RNF31 PUB domain (column 2 of 5), 1; with RNF31 PUB domain (column 3 of 5), 1; in the assay with RNF31 PUB domain (column 4 of 5) it was 0; with RNF31 PUB domain (column 5 of 5), 0.

In the case of DPAFDWCLYAADDCAET, the “Phage library screen NGS readout, Target Concentration 10” value with RNF31 PUB domain was determined as 1. The “Phage library screen NGS readout, Target Concentration 30” value with RNF31 PUB domain came out at 0. Besides, the “Phage library screen NGS readout, Target Concentration 100” value in the assay with RNF31 PUB domain is on record as 0. Besides, in the assay with RNF31 PUB domain, the “Phage library screen NGS readout, Target Concentration 300” value came to 3. Also, the “Phage library screen NGS readout, Target Concentration 1000” value with RNF31 PUB domain (setting [1]) is 31; in the assay with RNF31 PUB domain (setting [2]), 12. Besides, the “Phage library screen NGS readout, BLANK” value with RNF31 PUB domain (column 1 of 5) was 0; with RNF31 PUB domain (column 2 of 5), 0; with RNF31 PUB domain (column 3 of 5) it was 0; with RNF31 PUB domain (column 4 of 5), 0; with RNF31 PUB domain (column 5 of 5) it was 1.

Consider DPAQDWCMYAAYECDAH, for which the “Phage library screen NGS readout, Target Concentration 10” value with RNF31 PUB domain was 0. In addition, the “Phage library screen NGS readout, Target Concentration 30” value with RNF31 PUB domain was 0. In addition, the “Phage library screen NGS readout, Target Concentration 100” value with RNF31 PUB domain amounted to 0. For the same sequence, the “Phage library screen NGS readout, Target Concentration 300” value in the assay with RNF31 PUB domain was determined as 2. Also, the “Phage library screen NGS readout, Target Concentration 1000” value with RNF31 PUB domain (setting [1]) is given as 7; in the assay with RNF31 PUB domain (setting [2]), 9. The “Phage library screen NGS readout, BLANK” value with RNF31 PUB domain (column 1 of 5) was found to be 0; with RNF31 PUB domain (column 2 of 5), 0; with RNF31 PUB domain (column 3 of 5) it was 2; with RNF31 PUB domain (column 4 of 5), 1; in the assay with RNF31 PUB domain (column 5 of 5) it was 1.

Take DPALVTCTWAAIYCDDF: the “Phage library screen NGS readout, Target Concentration 10” value with RNF31 PUB domain is on record as 1. In addition, the “Phage library screen NGS readout, Target Concentration 30” value in the assay with RNF31 PUB domain came out at 1. Further, in the assay with RNF31 PUB domain, the “Phage library screen NGS readout, Target Concentration 100” value stood at 2. Also, the “Phage library screen NGS readout, Target Concentration 300” value with RNF31 PUB domain was found to be 1. Moreover, the “Phage library screen NGS readout, Target Concentration 1000” value turned out to be 4 with RNF31 PUB domain (setting [1]) and 10 in the assay with RNF31 PUB domain (setting [2]). Besides, the “Phage library screen NGS readout, BLANK” value with RNF31 PUB domain (column 1 of 5) amounted to 0; with RNF31 PUB domain (column 2 of 5), 1; with RNF31 PUB domain (column 3 of 5) it was 0; in the assay with RNF31 PUB domain (column 4 of 5) it was 2; in the assay with RNF31 PUB domain (column 5 of 5), 0.

As for “DPALWDCLYAADACITS (not fully specified; cysteine pairing not given here)”, in the assay with RNF31 PUB domain, the “Phage library screen NGS readout, Target Concentration 10” value worked out at 0. Also, the “Phage library screen NGS readout, Target Concentration 30” value with RNF31 PUB domain was found to be 1. The “Phage library screen NGS readout, Target Concentration 100” value with RNF31 PUB domain is 0. Further, the “Phage library screen NGS readout, Target Concentration 300” value with RNF31 PUB domain came out at 4. The “Phage library screen NGS readout, Target Concentration 1000” value in the assay with RNF31 PUB domain (setting [1]) was 8; in the assay with RNF31 PUB domain (setting [2]), 12. Besides, the “Phage library screen NGS readout, BLANK” value with RNF31 PUB domain (column 1 of 5) turned out to be 0; in the assay with RNF31 PUB domain (column 2 of 5), 2; with RNF31 PUB domain (column 3 of 5) it was 1; with RNF31 PUB domain (column 4 of 5), 0; with RNF31 PUB domain (column 5 of 5), 0.
